Experiments:
[1] = target: Leishmania braziliensis Hsp90 (LbHsp90) (Leishmania braziliensis); experiment: ITC; LbAha1 (130–150 µM) injected into LbHsp90 (around 5.5 µM, as dimers); 40 mM HEPES pH 7.5, 5 mM KCl; 20°C; One Set of Sites fit; apparent enthalpy
[2] = target: Leishmania braziliensis Hsp90 (LbHsp90) (Leishmania braziliensis)

Leishmania braziliensis Activator of Hsp90 ATPase 1 (LbAha1) (natural protein)
Kd [1]: 1000 nM | dH [1]: -18 kcal/mol | stoichiometry N (LbAha1 per LbHsp90 dimer) [1]: 2 | stimulation of LbHsp90 ATPase activity (1 µM dimer, 0.5 mM ATP, 37°C) by increasing LbAha1 (0–20 µM in the methods, 0–16 µM in the legend); relative ATPase activity [2]: 10 fold
